Experimental data taken from the RNAGym collection of RNA variant scans (doi:10.1073/pnas.2313332121).
Variants at the floor of the assay were thinned out.

B1: TPR 5TU (parent)
chain: GGAUCUUCUCGAUCUAACAAAAAAGACAAAUCUGCCACAAAGCUUGAGAGCAUCUUCGGAUGCAGAGGCGGCAGCCUUCGGUGGCGCGAUAGCGCCAACGUUCUCAACUAUGACACGCAAAACGCGUGCUCCGUUGAAUGGAGUUUAUCAUG

Variants of: B1
Test: polymerase ribozyme fitness, log enrichment relative to wild type (log ratio); higher = more active; in vitro selection for triplet polymerase activity
Outline: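 Both subunits of a heterodimeric triplet polymerase ribozyme were given their own mutant library, built by PCR and transcribed. Each library was annealed with a biotinylated primer, the partner subunit and triplets, incubated frozen at −7 °C, and its extended constructs gel-excised, captured on streptavidin beads and amplified by RT-PCR, all in one round done in triplicate. Fitness is the logarithm of genotype enrichment relative to wild-type enrichment, with replicates averaged by inverse-variance weighting. That logarithm is base 2, and Illumina-sequenced genotypes needed ≥10 input reads and ≥1 read per output.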

Variant | polymerase ribozyme fitness (log ratio)
C72G C85G | ≤ -4.2
G70C G88U A91G C95A A119G U144C U148C | ≤ -4.2
C72U C93U | -0.741
C72A G140U | ≤ -4.2
G71U C116U | -2.4
A73G U148C | -2.55
A73G U148A | -3.81
C72U G92U U135A G143A | -3.54
G74A A89C | ≤ -4.2
G71C A91U G136C | ≤ -4.2
G71U C72A A91G C116A A138U | ≤ -4.2
C75G C118U | -3.87
C69U G128C U130C C132G U135A A138C | ≤ -4.2
A73G U134G | -2.2
G74C U82C | -4.05
C75G C85U | -3.58
A73U G94A G152C | ≤ -4.2
G74U | -3.33
G74A | -2.81
G74C | -3.96
G74A G141U | -2.35
C75G C85G A147U | ≤ -4.2
G70C G84U A107U | ≤ -4.2
G70A G141A | -3.46

Variant | polymerase ribozyme fitness (log ratio)
G74C C118U | -4.02
C75U C95G C96G | -3.09
C72G A89G G92A C114G | ≤ -4.2
G74A G84A A89G | ≤ -4.2
G70U U139G | -2.93
G71U A147C | -3.65
C75U A89C C95U | -0.65
A73G C95U A122U C125U U127G A138G | ≤ -4.2
G74U C85G C99A A107U C125A | ≤ -4.2
C72A U148A | ≤ -4.2
C72G G86C | ≤ -4.2
C69U U78A A97U G143C | ≤ -4.2
C75G A97U | ≤ -4.2
G70A G86A A89G C99A | ≤ -4.2
C72U A147C | -1.72
C72U A147U | 0.651
A73G C76U C93A C99A U145A | ≤ -4.2
G70C G86A C114U A115G G143U A150C | ≤ -4.2
G70C C76A C79U C87A | ≤ -4.2
A73G G88A A107G | ≤ -4.2
G74A U77G | ≤ -4.2
G74A U82G G94U G136A | ≤ -4.2
A73U C96A U109A C116U | -3.64
G74C C105U A107G | ≤ -4.2

Variant | polymerase ribozyme fitness (log ratio)
A73U G84A U144C | -1.83
C72A U77A G88C C93G U111G A137U U139G | ≤ -4.2
C75A G80C C105G | ≤ -4.2
C72U G92A C116U U139G | -3.15
G70A G88C U144C | ≤ -4.2
G70U C85U G88C U145C | ≤ -4.2
C72U C93G A106G A121U | -2.98
A73G A142C | -1.76
G71U A91U A122G G143U U145C | ≤ -4.2
G71A C87G C93A C95G | ≤ -4.2
A73G C125G | -0.161
A73G C93A U146C | -2.15
C75G C76G G81U C95G | ≤ -4.2
G74C U90C A91C U104G U130A | ≤ -4.2
G70U C76A | -4.19
G74U A97U | -4.18
A73C A107G | ≤ -4.2
G70A A73U G133A U135G | ≤ -4.2
C75G C93U | -3.74
A73G C85A | -1.22
G70U A73U A89G C95G G141U | ≤ -4.2
G71C G83U G141A A147C C149A | ≤ -4.2
A73U G81U A106G A115G A119U A147C | ≤ -4.2
A73G C99U | -0.979

Variant | polymerase ribozyme fitness (log ratio)
A73U G86U | -4.19
C75U A91G | -3.07
A73C A113C | ≤ -4.2
G70A A110G A142G | -4.14
C72U A122G | -0.726
G74A A89C G94U U109G G117U | ≤ -4.2
G71U G92U G136A | -2.26
G71A C87A G92C | -3.04
C72U U90C C93A U104A U127A | ≤ -4.2
A73G C93U G141U | 0.326
A73U C75U C118G | ≤ -4.2
G70C A142C | -3.72
A73C C87G G141C | ≤ -4.2
C75A G83A A98U | -4.16
A73U C93A | -3.39
A73U C93U | -1.62
A73C G94A C95U U102C G126C G141U | ≤ -4.2
G71C A91U C93U U104G | ≤ -4.2
C72U C87U U101G G124C | -1.6
A73G U104C | -0.284
G71A G80U C85U | ≤ -4.2
C75A C96U A97C | ≤ -4.2
C69U G71U C87U A89C | -3.31
A73G G128C | -3.67

Variant | polymerase ribozyme fitness (log ratio)
A73U C76A U77A G94C U104G A106G C108U | ≤ -4.2
A73G C114U | -2.66
G71A A91U C95G A119U A121G C129A A147G | ≤ -4.2
C69U G136A A142U | -0.531
A73G U77C G88C | ≤ -4.2
A73G C96G C105A U139A | ≤ -4.2
C72U G143C | -3.23
G70C U134G | -4.17
G70U G80U A119G | ≤ -4.2
A73G C79U C96U A142U | ≤ -4.2
C75A G86U | ≤ -4.2
A73G A106C U111A U144A | ≤ -4.2
A73G G83A | -1.72
C72U G124U A142G | -2
G74C C76A C87U C114U C116U | ≤ -4.2
A73C A121U G133U | ≤ -4.2
G70U A119C | -2.09
C75A C103G | ≤ -4.2
A73G C87G U146G | ≤ -4.2
C75G C85U A106C A115G G141U | ≤ -4.2
C69U G84C C132G G143A | ≤ -4.2
G71C C95A | ≤ -4.2
G71A C95U C132U | -4.11
A73U G133U A147C | ≤ -4.2

Variant | polymerase ribozyme fitness (log ratio)
G71C C76G A113U G124A | ≤ -4.2
G74C A150C | ≤ -4.2
C69U G86C | ≤ -4.2
C72A C114A | ≤ -4.2
G74A U77G G83A | ≤ -4.2
C75U A122G G124A C149U | -1.15
G70A C79A C87G C99U C105U A142G | ≤ -4.2
C75U C93U | -0.656
C75U C93G | -3
C75A C79U G94C | ≤ -4.2
C72U C76A G84A C87U A91G A106G C125A | ≤ -4.2
C72A C85A | -3.85
C72U G126U C132A | -4.12
G74A G80A C85A G92A C125A G136C A138G | ≤ -4.2
C72U G126U | -0.101
G71A C76G U82A G83C C131A | ≤ -4.2
G71C C85U | -3.27
C72U U145A | 0.261
G70A A147U | -2.67
G71C C95U C132U G141A U146G | ≤ -4.2
G71U G94C A110G | ≤ -4.2
C75A C95U A98U C103U U145G U146G | ≤ -4.2
G74A C85G | -3.83
G74A C85U | -3.54

Variant | polymerase ribozyme fitness (log ratio)
A73U C79U G88A A119G G124U C149A | ≤ -4.2
C72U A91U C96G | ≤ -4.2
C75G U134G | -4
A73C A142U | ≤ -4.2
A73G C118G C132G | ≤ -4.2
G71C U82C | -2.48
G71U C108U | ≤ -4.2
G70C G136C | ≤ -4.2
G71C C93U C95G C99G A115C | -3.95
G71U G84A | -2.59
G70A C87U C96A C118G A147C | ≤ -4.2
G70A G74A U101G U104C A147U | ≤ -4.2
C72U U134A | -2.32
G71U G141U | -3.55
A73G C76A G88C C105G C108G C114U G136U | -3.91
G70A G84A C87G A113C A120G | ≤ -4.2
A73C G86C U104C | ≤ -4.2
C75G G84A | -3.93
G70U A122C U144G | -2.06
G71U A89U | -2.83
C72U A91U G92A U127G | ≤ -4.2
G70C C75A U109G A137C | ≤ -4.2
G74A A91U G117U G141U | ≤ -4.2
